# Assay results as given in US20250346644A1 (LATTICON SUZHOU BIOPHARMACEUTICALS, published 2025).
# T1: mIL2-his (mouse, UniProt P04351 21-169)
# T1 construct: also called wild-type mouse IL-2 (with a his-tag); not shown: his-tag
# T1 sequence (looked up): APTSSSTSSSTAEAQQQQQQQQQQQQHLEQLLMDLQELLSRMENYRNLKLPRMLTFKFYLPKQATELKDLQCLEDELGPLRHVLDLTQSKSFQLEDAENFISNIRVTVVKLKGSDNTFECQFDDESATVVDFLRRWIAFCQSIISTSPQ
# T2: hIL2Rβ (hCD122) (human, UniProt P14784 27-239, limits assumed)
# T2 construct: bought recombinant protein; also called hCD122 (Acro)
# T2 sequence (looked up): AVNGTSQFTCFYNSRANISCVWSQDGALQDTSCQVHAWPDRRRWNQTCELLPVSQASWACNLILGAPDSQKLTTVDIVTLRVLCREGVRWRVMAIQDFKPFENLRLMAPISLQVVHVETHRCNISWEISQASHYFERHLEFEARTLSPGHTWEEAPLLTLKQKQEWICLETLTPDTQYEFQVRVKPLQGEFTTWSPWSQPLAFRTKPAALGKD
# T3: high-affinity IL2R expressed on the surface of CTLL-2 cells
# T3 sequence (P01590 whole entry, species assumed, looked up): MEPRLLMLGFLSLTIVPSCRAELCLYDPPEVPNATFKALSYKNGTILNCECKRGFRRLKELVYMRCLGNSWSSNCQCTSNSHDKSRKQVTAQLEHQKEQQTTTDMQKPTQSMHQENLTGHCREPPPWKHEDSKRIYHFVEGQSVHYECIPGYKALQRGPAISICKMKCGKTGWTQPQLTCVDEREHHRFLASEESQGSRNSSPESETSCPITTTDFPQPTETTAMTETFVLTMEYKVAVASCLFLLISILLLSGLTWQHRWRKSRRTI
# T3 sequence (P16297 whole entry, species assumed, looked up): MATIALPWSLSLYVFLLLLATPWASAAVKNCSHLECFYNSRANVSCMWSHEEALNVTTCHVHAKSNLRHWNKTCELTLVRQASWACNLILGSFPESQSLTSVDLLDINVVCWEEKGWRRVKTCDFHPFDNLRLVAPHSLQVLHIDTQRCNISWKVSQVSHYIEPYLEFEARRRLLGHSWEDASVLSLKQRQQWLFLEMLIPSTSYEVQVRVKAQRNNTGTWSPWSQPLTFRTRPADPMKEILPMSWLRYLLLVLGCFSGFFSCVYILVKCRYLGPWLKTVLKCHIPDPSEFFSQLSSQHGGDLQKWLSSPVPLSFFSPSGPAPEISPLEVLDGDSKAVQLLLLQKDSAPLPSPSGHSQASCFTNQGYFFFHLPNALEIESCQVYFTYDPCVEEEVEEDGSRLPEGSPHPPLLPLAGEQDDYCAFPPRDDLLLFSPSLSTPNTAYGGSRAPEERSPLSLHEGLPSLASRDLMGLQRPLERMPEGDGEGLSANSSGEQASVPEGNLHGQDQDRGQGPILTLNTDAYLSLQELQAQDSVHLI
# T3 sequence (P34902 whole entry, species assumed, looked up): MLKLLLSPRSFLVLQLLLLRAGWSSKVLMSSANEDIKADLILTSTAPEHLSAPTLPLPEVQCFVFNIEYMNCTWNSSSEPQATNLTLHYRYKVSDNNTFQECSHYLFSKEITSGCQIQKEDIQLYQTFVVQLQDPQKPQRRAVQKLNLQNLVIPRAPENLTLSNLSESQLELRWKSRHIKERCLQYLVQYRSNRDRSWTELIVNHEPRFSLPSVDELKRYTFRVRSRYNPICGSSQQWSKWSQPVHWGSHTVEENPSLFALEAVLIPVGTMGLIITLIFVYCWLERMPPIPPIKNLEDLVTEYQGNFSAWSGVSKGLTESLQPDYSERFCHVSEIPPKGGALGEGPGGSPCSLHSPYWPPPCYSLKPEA
# Columns and labels:
# mIL2-his [1] = molecular target: T1, mIL2-his; experiment: BLI ForteBio, Ab on Protein A sensor
# Experimental: After each cycle of association and dissociation steps, the sensor was regenerated by 10 mM glycine buffer (pH 1.5) and then stated with the next cycle of detection. After the detection, the association rate constant and dissociation rate constant between the antibody and antigen were fitted and extrapolated using the analytical software, and the value of affinity constant (KD) was calculated.
# mIL2-his [2] = molecular target: T1, mIL2-his; experiment: ELISA, antibody captured by anti-human IgG, mIL2-his titrated
# Experimental: (§1) ELISA was performed as follows: a goat anti-human IgG (Jackson Immunoresearch) was diluted to 1 μg/mL in 1×PBS and added to an ELISA plate at 100 μL/well, and then incubated at 4° C. overnight. The plate was washed with PBS and then blocked at room temperature for 1 hour after adding the blocking solution (PBST containing 1% BSA) to each well. […] The plate was washed with PBST; the HRP-labeled anti-6×His-tag secondary antibody (Proteintech) diluted at a ratio of 1:10,000 in blocking solution was then added to each well and incubated at room temperature for 1 hour. The plate was washed with PBST; the TMB chromogenic solution (Thermo) was added to each well and incubated in dark for 3-10 minutes at room temperature. The stop solution (2 M HCl) was added to each well, and OD values at a wavelength of 450-570 nm were read using a multimode microplate reader (Varioskan, Thermo).
# hIL2Rβ (hCD122) = molecular target: T2, hIL2Rβ (hCD122); experiment: ELISA (method of section 2.1.1): sample captured on coated goat anti-human IgG, hCD122 titrated; the x axis is the CD122 concentration
# Experimental: as §1
# [3] = molecular target: T3, high-affinity IL2R expressed on the …; experiment: cell-based or functional assay
binder,measurement,setting,value
"hS4B6-H6K7 (antibody, V domains shown, full antibody) VH: QVQLVQSGAEVKKPGATVKISCKVSGDTITAYYLHWVRQAPGQGLEWIGRIDPEDDSTKYAENFKNRVTITADTSTNTAYMELSSLRSEDTAVYYCTTVTFYYSRELRWFAYWGQGTLVTVSS VL: DIQMTQSPSSLSASVGDRVTITCQASQDIGNYLSWYQQKPGKAPKLLIHSATSLADGVPSRFSGSGSGTDFTLTISSLQPEDFATYYCLQHYSTPYTFGGGTKVEIK",Kd,mIL2-his [1],1.4 nM
same,koff,mIL2-his [1],0.00121 s⁻¹
same,kon,mIL2-his [1],864000 M⁻¹ s⁻¹
same,EC50,mIL2-his [2],0.0357 µg/mL
"IC-Cy08-DE (other, IC-Cy08 with light chain D1E; also called H6K3(H)-Cy-08-DE) heavy: APTSSSTKKTQLQLEHLLLDLQMILNGINNYKNPKLTRMLTFKFYMPKKATELKHLQCLEEELGCLEEVLNLAQSKNFHLRPRDLISNIRVIVLELKGSETTFMCEYADETATIVEFLNRWITFCQSIISTLTGGGGSGGGGSGGGGSGGGGSQVQLVQSGAEVKKPGATVKISCKVSGDTITAYYMHWVRQAPGQGLEWIGRIDPEDDSTKYAENFKGRVTITADTSTDTAYMELSSLRSEDTAVYYCTTVTCYYSRELRWFAYWGQGTLVTVSS VL: EIVLTQSPATLSLSPGERATLSCQASQDIGNYLSWYQQKPGQAPRLLIYSATSLASGIPARFSGSRSGTDFTLTISSLEPEDFAVYYCLQHYSTPYTFGQGTKLEIK",binding result,hIL2Rβ (hCD122),binds
"hS4B6-H1K1 (antibody, V domains shown, full antibody) VH: QVQLQESGPGLVKPSETLSLTCTVSGDTITAYYLHWIRQPPGKGLEWIGRIDPEDDSTKYAENFKNRVTISVDTSKNQFSLKLSSVTAADTAVYYCTTVTFYYSRELRWFAYWGQGTTVTVSS VL: DIVLTQSPGTLSLSPGERATLSCQASQDIGNYLSWYQQKPGQAPRLLIYSATSLADGIPDRFSGSRSGTDYTLTISRLEPEDFAVYYCLQHYSTPYTFGQGTKVEIK",Kd,mIL2-his [1],25.9 nM
same,koff,mIL2-his [1],0.000719 s⁻¹
same,kon,mIL2-his [1],27700 M⁻¹ s⁻¹
same,EC50,mIL2-his [2],0.0357 µg/mL
"hS4B6-H3K3 (antibody, V domains shown, full antibody) VH: QVTLKESGPVLVKPTQTLTLTCTVSGDTITAYYLHWIRQPPGKALEWIGRIDPEDDSTKYAENFKNRLTFSADTSKNQVVLTMTNMDPVDTATYYCARVTFYYSRELRWFAYWGQGTLVTVSS VL: DIVLTQSPATLSLSPGERATLSCQASQDIGNYLSWYQQKPGQAPRLLIYSATSLADGIPARFSGSRSGTDYTLTISSLEPEDFAVYYCLQHYSTPYTFGQGTKLEIK",Kd,mIL2-his [1],13.2 nM
same,koff,mIL2-his [1],0.00265 s⁻¹
same,kon,mIL2-his [1],200000 M⁻¹ s⁻¹
same,EC50,mIL2-his [2],0.185 µg/mL
K2G11-Cy04 (other) heavy: SSSTKKTQLQLEHLLLDLQMILNGINNYKNPKLTRMLTFKFYMPKKATELKHLQCLEEELGPLEEVLNLAQSKNFHLRPRDLISNIRVIVLELKGSETTFCCEYADETATIVEFLNRWITFLQSIISTLTGGGGSGGGGSGGGGSGGGGSQVQLVQSGAEVKKPGATVKISCKVSGDTITAYYMHWVRQAPGQGLEWIGRIDPDDDSTKYAENFKGRVTITADTSTDTAYMELSSLRSEDTAVYYCTTITFLYSRELRWFAYWGQGTLVTVSS VL: DIVLTQSPATLSLSPGERATLSCQASQYISNYLSWYQQKPGQAPRLLIYSACSLASGIPARFSGSRSGTDFTLTISSLEPEDFAVYYCLQHYSTPYTFGQGTKLEIK,"Activity in Promoting CTLL-2 Cell Proliferation (EC50, nM)",[3],9.17 nM
"IC-Cy08-QG (other, IC-Cy08 with light chain Q27G; also called H6K3(H)-Cy-08-QG) heavy: APTSSSTKKTQLQLEHLLLDLQMILNGINNYKNPKLTRMLTFKFYMPKKATELKHLQCLEEELGCLEEVLNLAQSKNFHLRPRDLISNIRVIVLELKGSETTFMCEYADETATIVEFLNRWITFCQSIISTLTGGGGSGGGGSGGGGSGGGGSQVQLVQSGAEVKKPGATVKISCKVSGDTITAYYMHWVRQAPGQGLEWIGRIDPEDDSTKYAENFKGRVTITADTSTDTAYMELSSLRSEDTAVYYCTTVTCYYSRELRWFAYWGQGTLVTVSS VL: DIVLTQSPATLSLSPGERATLSCQASGDIGNYLSWYQQKPGQAPRLLIYSATSLASGIPARFSGSRSGTDFTLTISSLEPEDFAVYYCLQHYSTPYTFGQGTKLEIK",binding result,hIL2Rβ (hCD122),binds
"IC-Cy08-QE (other, IC-Cy08 with light chain Q27E; also called H6K3(H)-Cy-08-QE) heavy: APTSSSTKKTQLQLEHLLLDLQMILNGINNYKNPKLTRMLTFKFYMPKKATELKHLQCLEEELGCLEEVLNLAQSKNFHLRPRDLISNIRVIVLELKGSETTFMCEYADETATIVEFLNRWITFCQSIISTLTGGGGSGGGGSGGGGSGGGGSQVQLVQSGAEVKKPGATVKISCKVSGDTITAYYMHWVRQAPGQGLEWIGRIDPEDDSTKYAENFKGRVTITADTSTDTAYMELSSLRSEDTAVYYCTTVTCYYSRELRWFAYWGQGTLVTVSS VL: DIVLTQSPATLSLSPGERATLSCQASEDIGNYLSWYQQKPGQAPRLLIYSATSLASGIPARFSGSRSGTDFTLTISSLEPEDFAVYYCLQHYSTPYTFGQGTKLEIK",binding result,hIL2Rβ (hCD122),binds
"IC-Cy08-QK (other, IC-Cy08 with light chain Q27K; also called H6K3(H)-Cy-08-QK; C-Cy8-QK) heavy: APTSSSTKKTQLQLEHLLLDLQMILNGINNYKNPKLTRMLTFKFYMPKKATELKHLQCLEEELGCLEEVLNLAQSKNFHLRPRDLISNIRVIVLELKGSETTFMCEYADETATIVEFLNRWITFCQSIISTLTGGGGSGGGGSGGGGSGGGGSQVQLVQSGAEVKKPGATVKISCKVSGDTITAYYMHWVRQAPGQGLEWIGRIDPEDDSTKYAENFKGRVTITADTSTDTAYMELSSLRSEDTAVYYCTTVTCYYSRELRWFAYWGQGTLVTVSS VL: DIVLTQSPATLSLSPGERATLSCQASKDIGNYLSWYQQKPGQAPRLLIYSATSLASGIPARFSGSRSGTDFTLTISSLEPEDFAVYYCLQHYSTPYTFGQGTKLEIK",binding result,hIL2Rβ (hCD122),binds
"IC-Cy08-QD (other, IC-Cy08 with light chain Q27D; also called H6K3(H)-Cy-08-QD) heavy: APTSSSTKKTQLQLEHLLLDLQMILNGINNYKNPKLTRMLTFKFYMPKKATELKHLQCLEEELGCLEEVLNLAQSKNFHLRPRDLISNIRVIVLELKGSETTFMCEYADETATIVEFLNRWITFCQSIISTLTGGGGSGGGGSGGGGSGGGGSQVQLVQSGAEVKKPGATVKISCKVSGDTITAYYMHWVRQAPGQGLEWIGRIDPEDDSTKYAENFKGRVTITADTSTDTAYMELSSLRSEDTAVYYCTTVTCYYSRELRWFAYWGQGTLVTVSS VL: DIVLTQSPATLSLSPGERATLSCQASDDIGNYLSWYQQKPGQAPRLLIYSATSLASGIPARFSGSRSGTDFTLTISSLEPEDFAVYYCLQHYSTPYTFGQGTKLEIK",binding result,hIL2Rβ (hCD122),binds
"IC-Cy08-QS (other, IC-Cy08 with light chain Q27S; also called H6K3(H)-Cy-08-QS) heavy: APTSSSTKKTQLQLEHLLLDLQMILNGINNYKNPKLTRMLTFKFYMPKKATELKHLQCLEEELGCLEEVLNLAQSKNFHLRPRDLISNIRVIVLELKGSETTFMCEYADETATIVEFLNRWITFCQSIISTLTGGGGSGGGGSGGGGSGGGGSQVQLVQSGAEVKKPGATVKISCKVSGDTITAYYMHWVRQAPGQGLEWIGRIDPEDDSTKYAENFKGRVTITADTSTDTAYMELSSLRSEDTAVYYCTTVTCYYSRELRWFAYWGQGTLVTVSS VL: DIVLTQSPATLSLSPGERATLSCQASSDIGNYLSWYQQKPGQAPRLLIYSATSLASGIPARFSGSRSGTDFTLTISSLEPEDFAVYYCLQHYSTPYTFGQGTKLEIK",binding result,hIL2Rβ (hCD122),binds
"IC-Cy08-QR (other, IC-Cy08 with light chain Q27R; also called H6K3(H)-Cy-08-QR) heavy: APTSSSTKKTQLQLEHLLLDLQMILNGINNYKNPKLTRMLTFKFYMPKKATELKHLQCLEEELGCLEEVLNLAQSKNFHLRPRDLISNIRVIVLELKGSETTFMCEYADETATIVEFLNRWITFCQSIISTLTGGGGSGGGGSGGGGSGGGGSQVQLVQSGAEVKKPGATVKISCKVSGDTITAYYMHWVRQAPGQGLEWIGRIDPEDDSTKYAENFKGRVTITADTSTDTAYMELSSLRSEDTAVYYCTTVTCYYSRELRWFAYWGQGTLVTVSS VL: DIVLTQSPATLSLSPGERATLSCQASRDIGNYLSWYQQKPGQAPRLLIYSATSLASGIPARFSGSRSGTDFTLTISSLEPEDFAVYYCLQHYSTPYTFGQGTKLEIK",binding result,hIL2Rβ (hCD122),binds
